Measurements taken from patent US20030170653A1, “Biological method for the production of tuliposide A and its intermediates” (priority 2001, published 2003).
One block for each molecule: values may come before it.

Columns and labels:
Type in all cases: biochemical
[1] = Dehydrogenase assay of protein extracts, oxidation of NADPH or NADH at 340 nm; conditions: 1.5 mM succinic semialdehyde; for activity with NADH as electron donator: 0.5 mM NADH; for specific activity: 0.5 mM NADPH, pH 7.2, room temperature, protein extract
Experimental: Plasmids pTrcEtp and pTrcAds were retransformed into TOP10 cells and freshly plated transformants were used in gene expression studies. In addition, the pTrcHis-TOPO/lacZ plasmid (Invitrogen) was also transformed into TOP10 cells to be used as a negative control in expression experiments. Freshly transformed Escherichia coli colonies containing pTrcEtp, pTrcAds or pTrcHis-TOPO/lacZ were inoculated into 2 mL of LB liquid media containing ampicillin (100 μg/mL) and grown at 37° C. for 5 h. These were then transferred to 100 mL of LB liquid media containing ampicillin (100 μg/mL) and cultures were grown overnight at room temperature. The next morning, the cultures were diluted to an OD600 nm of 0.2 and were grown at room temperature until the OD600 nm reached 0.8. IPTG was added to the cultures to a concentration of 0.4 mM and cultures were grown for an additional 3 h at room temperature. The cultures were then centrifuged at 10,000× g for 15 min, the supernatant was decanted and the resulting pellet was resuspended in 2 mL of breakage buffer (100 mM HEPES, pH 7.2; 10 % glycerol; 1 mM AEBSF; 1 μg/mL leupeptin; and 1 μg/mL pepstatin). Cells were broken by passage two times through a french press and the resulting extract was centrifuged at 16,000× g for 15 min at 4° C. The supernatant was carefully removed (soluble protein) and the pellet was resuspended in 1 mL of breakage buffer. An additional 1 mL of breakage buffer containing 12 mM CHAPS was added and after mixing and incubation on ice for 30 min, the mixture was centrifuged at 16,000× g for 15 min at 4° C. The supernatant was carefully removed (CHAPS soluble protein) and the pellet was resuspended in 2 mL of breakage buffer (insoluble protein).
Protein extracts (soluble, CHAPS soluble and insoluble) from TOP10 cells containing pTrcEtp, pTrcAds and pTrcHis-TOPO/lacZ were assayed by measuring the oxidation of NADPH or NADH using the decrease in absorbance at 340 nm (Hearl et al., J. Biol. Chem. 260:16361-16366 (1985)). Assays contained 100 mM potassium phosphate (pH 7.2), 10% glycerol, 1.5 mM succinic semialdehyde, 0.5 mM of either NADPH or NADH and from 10 μg-400 μg of enzyme extract in a total volume of 1 mL. Assays were initiated by addition of succinic semialdehyde and were measured at room temperature. Protein concentrations of each extract were determined using the BioRad protein assay (Biorad). Protein extracts were also analyzed by SDS-PAGE.

[2] = Kinetic analysis of purified dehydrogenases with succinatesemialdehyde and NADPH; conditions: purified enzyme 3 μg/mL, succinatesemialdehyde 0.1-30 mM, 0.5 mM NADPH, pH 7.0
Experimental: Cultures were grown at 37° C. for 5 h and then were transferred to 100 mL of LB liquid media containing ampicillin (100 μg/mL). These were grown overnight at room temperature. The next morning, 50 mL of each culture was transferred to 1 L of LB and grown at room temperature until the OD600 nm reached 0.8. IPTG was added to the cultures to a concentration of 0.4 mM and cultures were grown for an additional 4 h at room temperature. The cultures were then centrifuged at 10,000× g for 15 min, the supernatant was decanted and the resulting pellet was resuspended in 10 mL of breakage buffer (100 mM HEPES, pH 7.2; 10 % glycerol; 1 mM AEBSF; 1 μg/mL leupeptin; and 1 μg/mL pepstatin). Cells were broken by passage two times through a french press and the resulting extract was centrifuged at 16,000× g for 15 min at 4° C. The supernatant was carefully removed and 40 mL of Ni loading buffer (20 mM sodium phosphate, pH 7.5; 10 mM immidazole; 500 mM sodium chloride) was added. Proteins were loaded onto a 5 mL Hitrap chelating column (Pharmacia, Inc.) pre-equilibrated with 100 mM nickel sulfate and washed with 20 mL of loading buffer. Another wash with 50 mL of loading buffer containing 60 mM immidazole was carried out and bound proteins were eluted with a gradient of loading buffer containing immidazole from 60 mM to 1000 mM. All fractions were analyzed by SDS-PAGE.
(§1) All proteins eluted at around 120 mM immidazole. Purified proteins from pTrcAds and pTrcEtp were assayed with succinatesemialdehyde and NADPH as described above. […] Assays contained 0.5 mM NADPH, 100 mM sodium phosphate (pH 7.0), 1 mg/mL BSA, succinatesemialdehyde and enzyme in 200 μL total. Assays were carried out at various concentrations of succinatesemialdehyde (0.1-30 mM) using 3 μg/mL of each enzyme. Under these conditions, the kinetic parameters for the Arabidopsis dehydrogenase (kcat=1290 min-1, KM=4 mM) and the Tulip dehydrogenase (kcat=1200 min^−1, KM=3 mM) were determined. The ablility of each enzyme to reduce to α-methylenesuccinatesemialdehyde to α-methylene-γ-hydroxybutyrate was assessed in a coupled assay. The GABT protein from E. coli, purified as described above, was used to generate α-methylenesuccinatesemialdehyde from α-methylene-γ-aminobutyrate. This assay was carried out in the presence or absence of the Arabidopsis and Tulip dehydrogenase. […] To this was added either the Arabidopsis or Tulip protein (20 μg/mL and 3 μg/mL) or no additional protein as negative control. Assays were incubated at room temperature for 30 min and the reaction was stopped with 10% HCl. Acidification of the assay also served to partially convert α-methylene-γ-hydroxybutyrate to α-methylene-γ-butyrolactone (MBL). […] Compounds were detected with a Waters 9600 PDA detector. […]

[3] = Coupled assay with purified GABT: reduction of α-methylenesuccinatesemialdehyde, MBL detected by HPLC; conditions: coupled with 100 μg GABT, 1 mM α-methylene-γ-aminobutyrate, 0.5 mM NADPH, room temperature, 30 min
Experimental: as §1

activity with NADH as electron donator [1]: no activity
B1: GHBD1: γ-hydroxybutyrate dehydrogenase homolog from tulip pistil (SEQ ID NO: 14), expressed from pTrcEtp (protein)
chain: MEVGFLGLGIMGKAMAVNLLRSGFRVTVWNRTLSKCNELLEQGASVGETPAAVIKKCKYTIAMLSDPSAALSVVFDKDGVLEHMSSGKGYIDMSTVDAVTSSKISEAITQKGGHFLEAPVSGSKKPAEDGQLVILAAGEKALYEEIIPAFEVLGKKSFFLGQVGNGANMKLIVNMIMGSMMNALSEGLSLAGKSGLEQKTLLDVLDLGAIANPMFKLKGPAMIQNNHPPAFPLKHQQKDMRLALALGDENAVSMPVAAAANEAFKKARSLGLGDLDFSAVYEVLKYGDAS
modifications: tulip pistil
specific activity [1]: 0.14 μmol/min^−1/mg^−1
Km [2]: 3 mM
kcat [2]: 1200 min⁻¹
conversion of α-methylenesuccinatesemialdehyde [3]: could convert

activity with NADH as electron donator [1]: no activity
B2: GHBD2: γ-hydroxybutyrate dehydrogenase homolog from Arabidopsis (SEQ ID NO: 16), expressed from pTrcAds (protein)
chain: MEVGFLGLGIMGKAMSMNLLKNGFKVTVWNRTLSKCDELVEHGASVCESPAEVIKKCKYTIAMLSDPCAALSVVFDKGGVLEQICEGKGYIDMSTVDAETSLKINEAITGKGGRFVEGPVSGSKKPAEDGQLIILAAGDKALFEESIPAFDVLGKRSFYLGQVGNGAKMKLIVNMIMGSMMNAFSEGLVLADKSGLSSDTLLDILDLGAMTNPMFKGKGPSMNKSSYPPAFPLKHQQKDMRLALALGDENAVSMPVAAAANEAFKKARSLGLGDLDFSAVIEAVKFSRE
modifications: Arabidopsis
specific activity [1]: 0.097 μmol/min^−1/mg^−1
Km [2]: 4 mM
kcat [2]: 1290 min⁻¹
conversion of α-methylenesuccinatesemialdehyde [3]: could convert
